Reference: the supplement of paper PMC10126150
± gives the standard deviation of the averaged measurements.
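Note: ATP exposure 15 min at 22 °C before imaging.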

The sequences below were run on ATP (assay: switch fluorescence ratio, 500 uM ATP over buffer (Cy3 cluster intensity, sum of 5 cycles each) (fold (ratio)); higher = stronger signal-on switching upon ATP binding; sequences stand for … in TCGTCGGCAGCGTCAGATGTGTATAAGAGACAGTTTTTTTTTTTTTTTTTTTTTTTTT…TC). Details: aptamer strand: ATP DNA aptamer (quencher-CACCTGGGGGAGTATTGCGGAGGAAGG + anchor), 100 nM annealed; ATP concentration: 500 uM.
Summary of the method: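 Clusters with intensities outside 100-1000 RFU were excluded. The remaining Cy3-labelled switching-strand clusters on a modified Illumina MiSeq flow-cell had been annealed to 100 nM quencher-labelled ATP aptamer and imaged in selection buffer, then after 15 min with 500 uM ATP at 22 °C, for five cycles separated by NaOH stripping and re-annealing. The fluorescence ratio, averaged per switch-domain sequence, is each cluster's summed target-cycle Cy3 intensity over its summed buffer-cycle Cy3 intensity.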
AGTGCTTTTA gave a switch fluorescence ratio of 0.9927 ± 0.0073.
GAGGTCAAGG gave a switch fluorescence ratio of 0.987 ± 0.033.
For TGGGGTTGAC, the switch fluorescence ratio was 0.9697 ± 0.0034.
ATTTTTTGTT was tested, and the switch fluorescence ratio was 0.976 ± 0.047.
AAACGGCTAA showed a switch fluorescence ratio of 1.02 ± 0.039.
TACGAGTGGT was tested, and the switch fluorescence ratio was 0.99394 ± 0.00054.
In the case of CAGGCGTGCA, the switch fluorescence ratio is reported as 0.998 ± 0.018.
For TAGTATTCTG, the switch fluorescence ratio was 0.986 ± 0.021.
With GATTGGGGAA the switch fluorescence ratio was 1.02 ± 0.013.
With CGGTTGCATT the switch fluorescence ratio was 1.04 ± 0.031.
With GAAGAGCGGG the switch fluorescence ratio was 0.978 ± 0.016.
GATTAGCCGG was tested, and the switch fluorescence ratio was 0.99 ± 0.015.
GATATATGCT gave a switch fluorescence ratio of 1 ± 0.013.
With ATTTAAAATG the switch fluorescence ratio was 0.994 ± 0.033.
In the case of GTTGTTACTG, the switch fluorescence ratio is reported as 1.02 ± 0.019.
In the case of GAAAGCTGAG, the switch fluorescence ratio is reported as 1.18 ± 0.033.
GGGTTTATGG was tested, and the switch fluorescence ratio was 0.987 ± 0.056.
With TTTAAAGAGT the switch fluorescence ratio was 0.972 ± 0.022.
Sequence TGGAGAGTGT has a switch fluorescence ratio of 0.963 ± 0.036.
AGAATCTTTC showed a switch fluorescence ratio of 1.05 ± 0.071.
AAGGGGATAT showed a switch fluorescence ratio of 1.03 ± 0.044.
In the case of ATAGTTGGC, the switch fluorescence ratio is reported as 1.04 ± 0.07.
TTTTTATTAT was tested, and the switch fluorescence ratio was 1.01 ± 0.036.
Sequence GGGGGATATC has a switch fluorescence ratio of 0.994 ± 0.06.
TCGTTGGATG was tested, and the switch fluorescence ratio was 0.9829 ± 0.0013.
Sequence CGCATTGTGG has a switch fluorescence ratio of 1.02 ± 0.042.
ATGTTTCTGA was tested, and the switch fluorescence ratio was 0.9851 ± 0.0032.
Work on TTAGTGTGTG yielded a switch fluorescence ratio of 0.994 ± 0.011.
ATGAGGGCCA was tested, and the switch fluorescence ratio was 1.01 ± 0.059.
Work on CCTTGCTGTG yielded a switch fluorescence ratio of 1.06 ± 0.039.
GTCCAAAAAC gave a switch fluorescence ratio of 1.15 ± 0.038.
TTCAATGAAA showed a switch fluorescence ratio of 1 ± 0.054.
With AGGTTGGGTT the switch fluorescence ratio was 0.997 ± 0.023.
For TACGATAGTC, the switch fluorescence ratio was 1.06 ± 0.069.
Sequence TAGGCTAGGT has a switch fluorescence ratio of 1.017 ± 0.0047.
In the case of CCTGGGGCAG, the switch fluorescence ratio is reported as 1.17 ± 0.093.
ACTGCAAGGA showed a switch fluorescence ratio of 1.029 ± 0.0078.
In the case of TGGGGACCTT, the switch fluorescence ratio is reported as 1 ± 0.0032.
Sequence ATATAAGTGA has a switch fluorescence ratio of 0.9543 ± 0.0063.
In the case of TTCTAGTTAC, the switch fluorescence ratio is reported as 1.047 ± 0.0056.
Work on ACGCCATTCT yielded a switch fluorescence ratio of 1.151 ± 0.0096.
Work on AGGCCGGTTT yielded a switch fluorescence ratio of 1.017 ± 0.0061.
With ATGAGGTGGG the switch fluorescence ratio was 0.992 ± 0.036.
For TGGTAGGGTT, the switch fluorescence ratio was 0.969 ± 0.028.
For CAGTTTGCTG, the switch fluorescence ratio was 0.979 ± 0.018.
AATTTGGGGG gave a switch fluorescence ratio of 1.02 ± 0.039.
Sequence CGAGTATGCA has a switch fluorescence ratio of 0.981 ± 0.024.
TGTGGTTGTT gave a switch fluorescence ratio of 1.02 ± 0.041.
GCGGTTAGCT was tested, and the switch fluorescence ratio was 1.04 ± 0.066.
For TGCGATTATG, the switch fluorescence ratio was 1.02 ± 0.041.
With ATTGTGGATC the switch fluorescence ratio was 1.03 ± 0.031.
GGTAATGTTT showed a switch fluorescence ratio of 1.01 ± 0.014.
With GCAGAGGGGT the switch fluorescence ratio was 1.04 ± 0.066.
TTGTTTTTTT was tested, and the switch fluorescence ratio was 1 ± 0.05.
GGCAGACGGT gave a switch fluorescence ratio of 1.006 ± 0.0016.
TTTTTGGATA showed a switch fluorescence ratio of 1.02 ± 0.014.
For GATGGGGAGT, the switch fluorescence ratio was 0.9715 ± 0.0057.
Sequence GGGTTTGGAA has a switch fluorescence ratio of 0.961 ± 0.027.
For ATTTTTACGG, the switch fluorescence ratio was 1.01 ± 0.013.
CGAAATGGCG was tested, and the switch fluorescence ratio was 1.053 ± 0.0038.
Work on TTGGGGCTTA yielded a switch fluorescence ratio of 1.03 ± 0.038.
In the case of TTGGTGCCGC, the switch fluorescence ratio is reported as 0.975 ± 0.017.
With GAGCAAAAGG the switch fluorescence ratio was 1.004 ± 0.0058.
TGGTCTTAGA gave a switch fluorescence ratio of 1.01 ± 0.012.
GGGGTCGGTG showed a switch fluorescence ratio of 0.969 ± 0.03.
For TAAGAGGAGG, the switch fluorescence ratio was 0.98337 ± 0.00017.
For TTTAATTCTT, the switch fluorescence ratio was 1 ± 0.012.
GGTATTACGA gave a switch fluorescence ratio of 0.989 ± 0.036.
In the case of GTCGGGGCTG, the switch fluorescence ratio is reported as 0.972 ± 0.049.
Work on GTGCCTGATG yielded a switch fluorescence ratio of 1.05 ± 0.046.
With CCGGTGAGGG the switch fluorescence ratio was 0.999 ± 0.05.
TGGATGATAT showed a switch fluorescence ratio of 0.9913 ± 0.008.
In the case of AGGCTTTTTT, the switch fluorescence ratio is reported as 0.966 ± 0.065.
For TTCAGCGTCT, the switch fluorescence ratio was 0.975 ± 0.043.
In the case of AGGGAAACGG, the switch fluorescence ratio is reported as 0.96 ± 0.018.
ATGCAATGGA showed a switch fluorescence ratio of 1 ± 0.064.
With TCAATCAGGT the switch fluorescence ratio was 1.032 ± 0.0019.
In the case of AGGGTGAATG, the switch fluorescence ratio is reported as 1 ± 0.0097.
TAACGGCGTG showed a switch fluorescence ratio of 1.03 ± 0.021.
AGAAAGGTAT gave a switch fluorescence ratio of 1.11 ± 0.25.
GAAGGTAGCA showed a switch fluorescence ratio of 1.03 ± 0.041.
In the case of ATGCATGGTT, the switch fluorescence ratio is reported as 1.02 ± 0.054.
ATATGAGTGA was tested, and the switch fluorescence ratio was 0.985 ± 0.013.
Work on GTTCTTTTAT yielded a switch fluorescence ratio of 1.01 ± 0.024.
Work on GTGGCGCGGA yielded a switch fluorescence ratio of 0.959 ± 0.013.
